This note sets out measurements from patent US12534533B2, “Anti-chemokine like receptor 1 humanized antibodies and their therapeutic applications” (OSE IMMUNOTHERAPEUTICS, priority 2019, dated 2026).

“Also recorded” adds a separate entry of the source.

Assay [1] concerns 4T1 cells. Description: orthotopic mammary carcinoma model (4T1). The class given is in vivo, mice. As to the method: FIG. 8. Effect of an anti-CMKLR1 antibody on a 4T1 breast tumor model. Mice were inoculated with 4T1 cells (0.25 million) in the mammary gland. Then the anti-CMKLR1 antibody (2G1) (A. […]B. ●) or an anti-41BB antibody (3H3) (●) or both antibodies (▴) were injected twice at day 4 and day 7 (10 μg/injection) or a control antibody (IgG1 isotype antibody clone 3G8) (x A. and B.) was injected three time a week for three weeks. A. The tumor area was measured 8 days after tumor injection and then every 2 days. B. Tumor lung metastasis was measured by Bioluminescence imaging (BLI) in animals treated with isotype control and anti-CMKLR1 antibody (n=4).
Mice were anesthetized with 3% of isoflurane. Mice were shaved on the abdomen and 4T1 cells (0.25 millions) were injected in the mammary gland with an insulinic syringe (30 Gauges) in 50 μL of PBS. The anti-CMKLR1 antibody (2G1) or an anti-41BB antibody (3H3) or both antibodies were injected twice at day 4 and day 7 (10 μg/injection); a control antibody was injected three times a week for three weeks intraperitoneally in PBS (100 μg/injection). In a second study to measure the lung metastasis following mammary carcinoma development, animals were treated with anti-CMKLR1 antibody at 0.8 mg/kg or control antibody (100 μg/injection) three times a week for three weeks.

Assay [2] deals with MC38 cells. Kind of assay: MC38 colon carcinoma model. The class given is in vivo, mice. The note with it: 20 μg/injection i.p. for 3 weeks; vs isotype control; FIG. 9D. On the procedure: FIG. 9. Effect of an anti-CMKLR1 antibody on 2 different colon carcinoma mice models. Two mice models were studied, and animals received isotype control antibody (3G8) (x) or anti-CMKLR1 (2G1) (□) at 20 μg/injection intraperitoneally for 3 weeks. A-C. Results in the CT26 colon carcinoma model comparing single treatment with p84 (A) and 2G1 (B) with combined therapy with both antibodies (C). D: Results in the MC38 colon carcinoma model.
8-week old C57bl/6J male mice were anesthetized with 3% of isoflurane. Mice were shaved on the flank and MC38 cells (0.5·10≢cells/mouse) cell lines were injected subcutaneously with an insulinic syringe (30 Gauges) in 50 μL of PBS. Another model was used, in which 8-week old Balb/c male mice were anesthetized with 3% of isoflurane. Mice were shaved on the flank and CT26 cells (1.10≢cells/mouse) were injected subcutaneously with an insulinic syringe (30 Gauges) in 50 μL of PBS.
The agonistic anti-CMKLR1 antibody (2G1) or an anti-SIRPa antibody (p84-anti-mouse SIRPa from Merck Millipore) (SIRPa is a new checkpoint inhibitor) were injected once a week (20 μg/injection) intraperitoneally for 3 weeks starting at d4 after tumor inoculation alone or combined.

Assay [3] concerns the target T1, CMKLR1 receptor (CHO-K1 CMKLR1 cells) (Homo sapiens, UniProt Q99788).
T1 construct: host or cells: CHO-K1
T1 sequence (Q99788 1-373): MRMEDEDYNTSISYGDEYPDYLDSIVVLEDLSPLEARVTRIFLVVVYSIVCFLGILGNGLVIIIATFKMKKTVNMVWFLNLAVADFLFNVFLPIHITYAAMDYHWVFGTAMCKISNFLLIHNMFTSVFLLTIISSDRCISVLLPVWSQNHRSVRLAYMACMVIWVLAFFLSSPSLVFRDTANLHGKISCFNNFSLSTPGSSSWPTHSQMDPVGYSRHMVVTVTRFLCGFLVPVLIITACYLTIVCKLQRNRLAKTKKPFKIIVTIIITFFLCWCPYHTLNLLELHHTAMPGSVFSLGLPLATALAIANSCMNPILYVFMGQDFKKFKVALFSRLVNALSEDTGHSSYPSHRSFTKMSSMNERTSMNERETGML
Description: competition assay, Chemerin-dependent beta-arrestin recruitment by CMKLR1 receptor. The class given is cell-based. The note with it: antibody 1 μM to 1 nM, Chemerin 2 or 6 nM; FIG. 18B. On the procedure:
The day before the assay, CHO-K1 CMKLR1 cells (Discover'X ref 93-0313E2) were plated in pre-warmed cell reagent then plated in a 96-well plate at 100 μl/well of cells as (Discover'X ref 15-103) and incubated […] at 37° C., in a 5% CO2 humidified incubator. The anti-CMLKR1 antibody was diluted (22× in 7-point series of 3-fold dilutions from 1 μM to 1 nM) and cells were incubated 30 min at 37° C. with the antibody. […] The luminescence was measured after Working Detection Solution addition to the cells with a plate reader with 0.5 s integration.
(In general: Arrestin recruitment assays detect the binding of arrestin to an activated receptor.)

The subject of assay [4] is PMN from healthy volunteers. Kind of assay: Percentage of dead PMN (mortality of neutrophils) on coated antibodies. It counts as cell-based, human. The note with it: coated Ab at 10 μg/mL, 24 h; FIG. 26, FIG. 36. On the procedure:
[…] Mortality of PMN was analyzed by incubating PMN with specific markers of the mortality and viability and then counted by picture analysis.
FIG. 36—Increase of dead PMN neutrophils in vitro with anti-ChemR23 antibodies coated. PMN from healthy volunteers were incubated in culture medium with coated HEF-LDT52S, HEF-LEF and HDLD antibody variants at 10 μg/mL for 24 h and stained either with a dead/viability kit (LIVE/DEAD (Invitrogen)). The percentages of positive cells were obtained by analyzing the pictures with Fiji software. Isotype control was added as control.
PMN from healthy volunteers were incubated in culture medium with coated Ab at 10 μg/mL for 24 h or 5 h and stained either with a dead/viability kit (LIVE/DEAD (Invitrogen)) or a specific marker of reactive oxygen species (ROS) respectively. The percentages of positive cells were obtained by analyzing the pictures with ImageJ software.
PMN from healthy volunteers were incubated in culture medium with coated HEF-LDT52S, HEF-LEF and HDLD antibody variants at 10 μg/mL for 24 h and stained either with a dead/viability kit (LIVE/DEAD (Invitrogen)). The percentages of positive cells were obtained by analyzing the pictures with Fiji software. Isotype control was added as control.

Assay [5] deals with AK-7 cells. Description: Mesothelioma model survival. Particulars: 1 mg/kg three times a week for 3 weeks starting at d4; vs control antibody; FIG. 30. The class given is in vivo, mice. On the procedure:
AK-7 cells (3M) were injected in the pleural cavity and mice received either Iso ctrl or 2G1 three times a week for 3 weeks starting at d4 at 1 mg/kg.

B1: 2G1: parental chimeric anti-CMKLR1 antibody: heavy chain variable domain SEQ ID No. 37, light chain variable domain SEQ ID No. 49 (antibody, V domains shown)
VH: EVQLVASGGGLVQPGGSLKLSCAASGFTFSSYGMSWVRQTPDRRLELVATINRYGGSTYYPDSVKGRFTISRDNAKNTLYLQMSSLKSEDTAMYYCPRLIYYGNEGDSWGQGTTLTVSS
VL: QIVLTQSPAIMSASPGEKVTMTCSASSSVSFMHWYQQKSGTSPKRWIYDTTKLTSGVPARFSGSGSGTFYSLTISSMEAEDAATYYCQQWNSKPPLTFGPGTKLELKR
Take B1: the “tumor growth (tumor area)” value in assay [1] (10 μg/injection at day 4 and day 7, vs isotype control, FIG. 8A) was “did not show any improvement”. The “lung metastasis by bioluminescence imaging” value in assay [1] (0.8 mg/kg three times a week for three weeks, vs control antibody, FIG. 8B) is “reduces the lung metastasis”. In assay [1] (two animals in the control have metastasis, data not shown), the lymph node metastasis result is recorded as “no animals treated with the anti-CMKLR1 compound has metastasis”. Moreover, the tumor growth entry in assay [2] is “did show an efficacy in the inhibition of the tumor growth”. Besides, the “chemerin-dependent activation of the beta-arrestin” value in assay [3] is “did not significantly modify chemerin-dependent activation of the beta-arrestin”. Also, in assay [4], the “mortality of PMN (percentage of dead PMN)” value is “increase the mortality of PMN; also recorded: accelerate the death of PMN”. Besides, the survival rate entry in assay [5] is “higher survival rate”.
